The text below walks through data of US20230340151A1 (Pfizer, published 2023).

Experiment [1] concerns the target T1, Purified human GUCY2c ECD (recombinant, construct not stated) (human, UniProt P25092 24-430).
T1 construct: also called recombinant human GUCY2c; recombinant GUCY2c protein
Description: direct ELISA, coated GUCY2c ECD.

A further experiment deals with T2, Human GUCY2C ECD-muIgG2a (human).
T2 construct: also called human GUCY2c ECD-mouse IgG2a Fc fusion protein; huGUCY2c-mIgG2a
Briefly: sandwich ELISA: CD3 epsilon-delta coated, GUCY2c ECD-mIgG2a Fc in solution. In general terms: An ELISA detects its analyte on a solid surface through an enzyme-linked reagent.

The target in experiment [2] is Human GUCY2c on tumor cells (T84, HT55) (human, UniProt P25092 24-1073). Briefly: cell-based or functional assay.
The target of experiment [3] is T3, Human GUCY2C full length (SEQ ID NO: 224), recombinant protein (human, UniProt P25092 24-430, limits assumed).
T3 construct: also called huGUCY2C; biotinylated human GUCY2c
Briefly: SPR, GUCY2c directly immobilized, 25 C. (In general: SPR reads the build-up and loss of mass on a sensor chip optically.)

In experiment [4] the target is T4, Human CD3 epsilon-delta (human).
T4 construct: Single-chain epsilon-linker-delta with His6; also called huCD3
T4 chain: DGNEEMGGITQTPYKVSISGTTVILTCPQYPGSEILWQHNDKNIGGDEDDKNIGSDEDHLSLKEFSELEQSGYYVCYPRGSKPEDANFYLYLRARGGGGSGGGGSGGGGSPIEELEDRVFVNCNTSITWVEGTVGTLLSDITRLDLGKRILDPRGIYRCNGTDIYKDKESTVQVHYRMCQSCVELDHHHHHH
Description: direct ELISA, coated CD3 epsilon-delta.

Experiment [5] has as its target T1, Purified human GUCY2c ECD (recombinant, …). Description: ELISA; column 'Direct huGUCY2C binding (nM)'.
Experiment [6] deals with T3, Human GUCY2C full length (SEQ ID NO: …). Briefly: SPR, anti-human IgG capture, 25 C.
In experiment [7] the target is T5, Cynomolgus CD3 epsilon-delta (cynomolgus).
T5 chain: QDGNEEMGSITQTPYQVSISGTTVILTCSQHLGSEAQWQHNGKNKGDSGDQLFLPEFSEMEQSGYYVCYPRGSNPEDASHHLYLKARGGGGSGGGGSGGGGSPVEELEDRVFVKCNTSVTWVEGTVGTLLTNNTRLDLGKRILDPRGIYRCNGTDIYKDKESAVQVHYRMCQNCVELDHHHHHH
Briefly: SPR, printed anti-His capture, 25 C (Table 33D).

Experiment [8] has as its target T6, Murine GUCY2C-ECD cleaved (mouse, UniProt Q3UWA6 20-433).
T6 sequence: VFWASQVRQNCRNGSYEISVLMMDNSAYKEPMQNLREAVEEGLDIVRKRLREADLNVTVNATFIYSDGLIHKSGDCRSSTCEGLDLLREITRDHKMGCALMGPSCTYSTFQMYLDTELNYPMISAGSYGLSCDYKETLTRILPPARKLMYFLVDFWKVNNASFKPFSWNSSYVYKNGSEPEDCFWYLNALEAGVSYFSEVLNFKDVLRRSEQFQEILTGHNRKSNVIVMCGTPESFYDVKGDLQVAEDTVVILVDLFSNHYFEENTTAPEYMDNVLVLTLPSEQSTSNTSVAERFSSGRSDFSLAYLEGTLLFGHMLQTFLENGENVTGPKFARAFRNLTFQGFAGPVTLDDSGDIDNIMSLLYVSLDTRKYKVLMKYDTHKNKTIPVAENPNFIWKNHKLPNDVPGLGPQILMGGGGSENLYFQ
Briefly: SPR, anti-human IgG capture, 25 C.

For experiment [9], the target named is T7, Cynomolgus GUCY2C-ECD Cleaved (cynomolgus, UniProt P25092 24-430 (human entry)).
T7 construct: also called CyGUCY2C
T7 chain: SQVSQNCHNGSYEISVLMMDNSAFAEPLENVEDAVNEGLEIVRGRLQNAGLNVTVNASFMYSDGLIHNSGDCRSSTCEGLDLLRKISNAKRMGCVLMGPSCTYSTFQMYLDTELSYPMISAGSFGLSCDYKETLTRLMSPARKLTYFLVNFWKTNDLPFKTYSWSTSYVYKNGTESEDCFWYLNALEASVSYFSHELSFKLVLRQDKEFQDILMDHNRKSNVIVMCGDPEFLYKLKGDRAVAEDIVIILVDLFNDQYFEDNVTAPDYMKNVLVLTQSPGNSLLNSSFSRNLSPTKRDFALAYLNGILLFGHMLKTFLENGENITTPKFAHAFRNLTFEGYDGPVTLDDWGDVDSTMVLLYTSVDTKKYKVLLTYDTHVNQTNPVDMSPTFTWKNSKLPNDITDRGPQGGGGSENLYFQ
Description: SPR, anti-human IgG capture, 25 C.

The target in experiment [10] is T4, Human CD3 epsilon-delta. Briefly: SPR, anti-human IgG capture, 25 C.

T3 sequence (P25092 24-430 F281L limits assumed): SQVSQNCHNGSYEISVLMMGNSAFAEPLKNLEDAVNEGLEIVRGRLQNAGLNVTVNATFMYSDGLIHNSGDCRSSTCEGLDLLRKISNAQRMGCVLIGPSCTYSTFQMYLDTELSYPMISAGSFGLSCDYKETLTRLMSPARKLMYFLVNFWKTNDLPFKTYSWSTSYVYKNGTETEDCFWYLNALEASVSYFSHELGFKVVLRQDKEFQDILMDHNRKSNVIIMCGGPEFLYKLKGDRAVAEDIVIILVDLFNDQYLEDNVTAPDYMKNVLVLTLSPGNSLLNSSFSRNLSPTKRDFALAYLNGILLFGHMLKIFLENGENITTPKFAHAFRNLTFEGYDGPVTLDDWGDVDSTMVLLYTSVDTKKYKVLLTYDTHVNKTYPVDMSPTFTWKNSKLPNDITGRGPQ
T1 sequence (P25092 24-430 limits assumed): as the sequence (P25092 24-430 F281L limits assumed) above, with L258F counted along it
Chain of Human GUCY2c on tumor cells (T84, HT55) (P25092 24-1073 limits assumed): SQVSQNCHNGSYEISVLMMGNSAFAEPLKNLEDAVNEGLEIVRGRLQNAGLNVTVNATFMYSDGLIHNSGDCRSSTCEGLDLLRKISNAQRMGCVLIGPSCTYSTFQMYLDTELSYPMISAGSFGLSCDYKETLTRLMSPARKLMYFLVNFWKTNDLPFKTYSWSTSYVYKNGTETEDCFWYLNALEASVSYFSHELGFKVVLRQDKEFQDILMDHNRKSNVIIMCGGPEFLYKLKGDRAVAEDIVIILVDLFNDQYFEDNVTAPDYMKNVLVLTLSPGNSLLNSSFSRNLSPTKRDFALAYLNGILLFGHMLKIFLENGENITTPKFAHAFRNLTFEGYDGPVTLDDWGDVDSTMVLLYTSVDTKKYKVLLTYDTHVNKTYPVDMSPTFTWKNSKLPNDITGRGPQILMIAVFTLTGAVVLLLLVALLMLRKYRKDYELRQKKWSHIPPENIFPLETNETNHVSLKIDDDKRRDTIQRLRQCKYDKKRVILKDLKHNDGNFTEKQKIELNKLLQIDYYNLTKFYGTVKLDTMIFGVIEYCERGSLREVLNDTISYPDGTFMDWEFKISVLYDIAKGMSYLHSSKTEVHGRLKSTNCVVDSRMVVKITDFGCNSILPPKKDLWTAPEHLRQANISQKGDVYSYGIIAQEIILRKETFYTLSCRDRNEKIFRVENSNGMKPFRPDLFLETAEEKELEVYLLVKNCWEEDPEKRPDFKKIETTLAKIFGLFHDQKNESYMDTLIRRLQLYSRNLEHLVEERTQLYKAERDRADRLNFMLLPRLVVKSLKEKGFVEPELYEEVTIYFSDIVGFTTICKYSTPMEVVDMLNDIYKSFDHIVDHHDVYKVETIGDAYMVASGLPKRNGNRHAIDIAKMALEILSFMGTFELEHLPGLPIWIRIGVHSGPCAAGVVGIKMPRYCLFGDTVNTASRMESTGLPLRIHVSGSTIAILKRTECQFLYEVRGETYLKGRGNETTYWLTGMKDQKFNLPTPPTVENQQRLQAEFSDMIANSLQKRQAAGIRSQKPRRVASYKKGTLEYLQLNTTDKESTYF
T2 sequence (chain, as listed by the source limits assumed): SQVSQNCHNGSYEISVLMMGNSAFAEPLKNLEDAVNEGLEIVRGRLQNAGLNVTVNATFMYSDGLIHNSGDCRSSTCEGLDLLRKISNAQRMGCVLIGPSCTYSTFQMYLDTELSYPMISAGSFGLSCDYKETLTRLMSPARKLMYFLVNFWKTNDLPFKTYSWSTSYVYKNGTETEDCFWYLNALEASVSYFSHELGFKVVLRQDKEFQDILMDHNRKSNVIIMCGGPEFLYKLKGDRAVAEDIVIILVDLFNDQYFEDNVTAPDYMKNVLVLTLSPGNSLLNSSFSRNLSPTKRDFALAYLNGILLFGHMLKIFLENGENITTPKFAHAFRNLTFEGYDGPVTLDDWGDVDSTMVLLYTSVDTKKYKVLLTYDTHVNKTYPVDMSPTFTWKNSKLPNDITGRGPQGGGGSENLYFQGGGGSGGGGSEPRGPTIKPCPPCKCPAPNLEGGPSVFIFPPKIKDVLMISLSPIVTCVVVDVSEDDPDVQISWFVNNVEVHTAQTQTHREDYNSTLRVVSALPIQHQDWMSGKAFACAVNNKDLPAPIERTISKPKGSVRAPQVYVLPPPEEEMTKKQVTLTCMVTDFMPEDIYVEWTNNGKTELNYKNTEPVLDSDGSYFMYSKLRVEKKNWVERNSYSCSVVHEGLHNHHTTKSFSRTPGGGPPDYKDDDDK

B1: GUCY2C-0104 (bispecific antibody)
chain 1: DIVMTQSPASLAVSLGQRATISCRASKGVTTSGYSYMHWYQQKPGQPPKLLIYLASNLESGVPARFSGSGSGTDFTLNIHPVEEEDAATYYCQHSREFPLTFGAGTKLELKGGGSGGGGEVQLVESGGGLVQPGGSLRLSCAASGFTFSDYYMTWVRQAPGKGLEWVAFIRNRARGYTSDHNPSVKGRFTISRDNAKNSLYLQMNSLRAEDTAVYYCARDRPSYYVLDYWGQGTTVTVSSGCPPCPAPEAAGAPSVFLFPPKPKDTLMISRTPEVTCVVVDVSHEDPEVKFNWYVDGVEVHNAKTKPREEQYNSTYRVVSVLTVLHQDWLNGKEYKCKVSNKALPAPIEKTISKAKGQPREPQVCTLPPSREEMTKNQVSLWCLVKGFYPSDIAVEWESNGQPENNYKTTPPVLDSDGSFFLYSKLTVDKSRWQQGNVFSCSVMHEALHNHYTQKSLSLSPG
chain 2: DIVMTQSPDSLAVSLGERATINCKSSQSLFNVRSRKNYLAWYQQKPGQPPKLLISWASTRESGVPDRFSGSGSGTDFTLTISSLQAEDVAVYYCKQSYDLFTFGSGTKLEIKGGGSGGGGEVQLQQSGAELVKPGASVKLSCTASGFNIKDTYIHWVKQRPEQGLEWIGRIDPANGNANYDPKFQGKATITADTSSNTAYLQLSSLTSEDTAVFYCSSLGTGTYWGQGTTLTVSSGCPPCPAPEAAGAPSVFLFPPKPKDTLMISRTPEVTCVVVDVSHEDPEVKFNWYVDGVEVHNAKTKPREEQYNSTYRVVSVLTVLHQDWLNGKEYKCKVSNKALPAPIEKTISKAKGQPREPQVYTLPPCREEMTKNQVSLSCAVKGFYPSDIAVEWESNGQPENNYKTTPPVLDSDGSFFLVSKLTVDKSRWQQGNVFSCSVMHEALHNHYTQKSLSLSPG
For B1, the EC50 (usually the midpoint of the concentration-response curve) in [1] was above 100 nM. In the experiment with Human GUCY2C ECD-muIgG2a, this molecule yielded an EC50 of 2.48 nM. In addition, the “T84 tumor cell EC50 (T cell cytotoxicity, E:T 10:1)” value in [2] worked out at 14.9 nM. In addition, in [3], the equilibrium dissociation constant (Kd) – broadly, the equilibrium constant for the complex coming apart – came out at 26.1 nM; the off-rate (koff) (commonly the rate constant with which the complex falls apart) amounted to 0.00386 s⁻¹; the kon (as a rule, the second-order rate constant of association) is 148000 M⁻¹ s⁻¹. Besides, a half-maximal response in the experiment with Human CD3 epsilon-delta [4] (EC50) required 0.418 nM.

B2: GUCY2C-0166 (antibody, human IgG1, V domains shown)
VH: EVQLVESGGGLVQPGGSLRLSCAASGYTFTTYWMQWVRQAPGKGLEWIGAIYPGDGMTTYTQKFKDRFTISADKAKNSAYLQMNSLRAEDTAVYYCVRKGMDYWGQGTLVTVSS
VL: DIQLTQSPSSLSASVGDRVTITCRASESVDNYGISFMNWFQQKPGKAPKLLIYAASNPGSGVPSRFSGSGSGTDFTLTISSLQPEDFATYYCQQSKEVPYTFGQGTKLEIK
notes: human IgG1
B2: the concentration giving a half-maximal response (EC50) in experiment [5] was determined as 0.0693 nM.

B3: GUCY2C-0074 (bispecific antibody)
chain 1: DIVLTQSPASLAVSLGQRATISCRASESVDNYGISFMNWFQQKPGQPPKLLIYAASNPGSGVPARFSGSGSGTDFSLNIHPLEEDDTAMFFCQQSKEVPYTFGGGTKLEIKGGGSGGGGEVQLVESGGGLVQPGGSLRLSCAASGFTFSDYYMTWVRQAPGKGLEWVAFIRNRARGYTSDHNPSVKGRFTISRDNAKNSLYLQMNSLRAEDTAVYYCARDRPSYYVLDYWGQGTTVTVSSGCPPCPAPEAAGAPSVFLFPPKPKDTLMISRTPEVTCVVVDVSHEDPEVKFNWYVDGVEVHNAKTKPREEQYNSTYRVVSVLTVLHQDWLNGKEYKCKVSNKALPAPIEKTISKAKGQPREPQVCTLPPSREEMTKNQVSLWCLVKGFYPSDIAVEWESNGQPENNYKTTPPVLDSDGSFFLYSKLTVDKSRWQQGNVFSCSVMHEALHNHYTQKSLSLSPG
chain 2: DIVMTQSPDSLAVSLGERATINCKSSQSLFNVRSRKNYLAWYQQKPGQPPKLLISWASTRESGVPDRFSGSGSGTDFTLTISSLQAEDVAVYYCKQSYDLFTFGSGTKLEIKGGGSGGGGEVQLQQSGAELARPGASVNLSCKASGYTFTTYWMQWVKQRPGQGLEWIGAIYPGDGMTTYTQKFKDKATLTADKSSSTAYMQLSSLASEDSAVYYCVRKGMDYWGQGTSVTVSSGCPPCPAPEAAGAPSVFLFPPKPKDTLMISRTPEVTCVVVDVSHEDPEVKFNWYVDGVEVHNAKTKPREEQYNSTYRVVSVLTVLHQDWLNGKEYKCKVSNKALPAPIEKTISKAKGQPREPQVYTLPPCREEMTKNQVSLSCAVKGFYPSDIAVEWESNGQPENNYKTTPPVLDSDGSFFLVSKLTVDKSRWQQGNVFSCSVMHEALHNHYTQKSLSLSPG
notes: chimeric CD3-GUCY2c diabody-Fc, CD3-0004
For the molecule B3, the EC50 is above 100 nM in [1], 4.05 nM with Human GUCY2C ECD-muIgG2a and 1.13 nM with Human CD3 epsilon-delta [4]. In addition, the dissociation constant Kd in experiment [6] stood at 45.4 nM; in experiment [7] it was 2.64 nM; in [8], 191 nM; in experiment [9] it was 60.4 nM; in the experiment with Human CD3 epsilon-delta [10], 2.17 nM. The koff in experiment [6] turned out to be 0.002 s⁻¹; in [7] it was 0.00112 s⁻¹; in experiment [8] it was 0.00282 s⁻¹; in experiment [9], 0.00284 s⁻¹; with Human CD3 epsilon-delta [10] it was 0.000861 s⁻¹. Moreover, the kon in [6] turned out to be 44100 M⁻¹ s⁻¹; in experiment [7] it was 425000 M⁻¹ s⁻¹; in experiment [8], 14800 M⁻¹ s⁻¹; in experiment [9] it was 47300 M⁻¹ s⁻¹; with Human CD3 epsilon-delta [10], 471000 M⁻¹ s⁻¹. In experiment [2], the “T84 tumor cell EC50 (T cell cytotoxicity, E:T 10:1)” value was 2.6 nM.

B4: GUCY2C-0193 (antibody, human IgG1, V domains shown)
VH: EVQLVESGGGLVQPGGSLRLSCAASGYTFTSYWMHWVRQAPGKGLEWIGEIKPSNGLTNYIEKFKNRFTISVDKAKNSAYLQMNSLRAEDTAVYYCTRTITTTEGYWFFDVWGQGTLVTVSS
VL: DIQMTQSPSSLSASVGDRVTITCRASESVDYYGTSLMQWYQQKPGKAPKLLIYAASNVESGVPSRFSGSGSGTDFTLTISSLQPEDFATYYCQQTRKVYTFGQGTKLEIK
Consider B4, for which the EC50 in experiment [5] was 0.23 nM.

B5: GUCY2C-0179 (antibody, human IgG1, V domains shown)
VH: EVQLVESGGGLVQPGGSLRLSCAASGYSFTDYIMLWVRQAPGKGLEWIGNSNPYYGSTSYNLKFKGRFTISVDKAKNSAYLQMNSLRAEDTAVYYCARSGYYGSSPYWYFDVWGQGTMVTVSS
VL: DIQMTQSPSSLSASVGDRVTITCKSSQSLLYSSNQKNYLAWYQQKPGKSPKLLIYWASTRESGVPSRFSGSGSGTDFTLTISSLQPEDFATYYCQQYYSYPTFGGGTKVEIK
Turning to B5, in experiment [5], the concentration for a half-maximal effect (EC50) was found to be 5.14 nM.
